Results: publication doi:10.1101/2020.03.16.993006 (bioRxiv, 2020)
Where two headings read alike, the source gives them in different places.

Experiments:
[1] = target: Rhodamine green-hepcidin (human); assay: fluorescence polarisation
[2] = target: Rhodamine green-hepcidin (human); assay: fluorescence polarisation; remark: listed apart in the source
[3] = target: Rhodamine green-hepcidin (human); assay: fluorescence polarisation; remark: listed apart in the source
[4] = target: Rhodamine green-hepcidin (human); assay: fluorescence polarisation; remark: listed apart in the source
[5] = target: human ferroportin (FPN), wild type, reconstituted in lipid nanodisc (human, UniProt Q9NP59); assay: cryo-EM structure

Kd [1]	Kd [2]	Kd [3]	Kd [4]	binding result [5]	Binder
2.5 nM	7.7 nM	210 nM	7.8 nM	–	human ferroportin (FPN), wild type, reconstituted in lipid nanodisc (natural protein) MTRAGDHNRQRGCCGSLADYLTSAKFLLYLGHSLSTWGDRMWHFAVSVFLVELYGNSLLLTAVYGLVVAGSVLVLGAIIGDWVDKNARLKVAQTSLVVQNVSVILCGIILMMVFLHKHELLTMYHGWVLTSCYILIITIANIANLASTATAITIQRDWIVVVAGEDRSKLANMNATIRRIDQLTNILAPMAVGQIMTFGSPVIGCGFISGWNLVSMCVEYVLLWKVYQKTPALAVKAGLKEEETELKQLNLHKDTEPKPLEGTHLMGVKDSNIHELEHEQEPTCASQMAEPFRTFRDGWVSYYNQPVFLAGMGLAFLYMTVLGFDCITTGYAYTQGLSGSILSILMGASAITGIMGTVAFTWLRRKCGLVRTGLISGLAQLSCLILCVISVFMPGSPLDLSVSPFEDIRSRFIQGESITPTKIPEITTEIYMSNGSNSANIVPETSPESVPIISVSLLFAGVIAARIGLWSFDLTVTQLLQENVIESERGIINGVQNSMNYLLDLLHFIMVILAPNPEAFGLLVLISVSFVAMGHIMYFRFAQNTLGNKLFACGPDAKEVRKENQANTSVV
–	–	–	–	binds	Fab45D8 (Fab, V domains shown) VH: EVQLQESGPGLAKPSQTLSLTCSVTGSSITSDYWNWIRKFPGNKLEYMGYISYSGSTYYNPSLKSQISITRDTSKNHYYLQLNSVTTEDTATYYCARQGLRNWYFDVWGTGTTVTVSS VL: DIVLTQSPASLPVSLGQRATISCRASKSVSASAYSYMHWYQQKPGQPPKPLIYLASNLESGVPARFSGSGSGTDFTLNIHPVEEEDAATYYCQHNRELPYTFGGGTKLEIK
